The supplement of paper PMC12042874
± gives the uncertainty stated by the source.

assay: amyloid nucleation score (Sup35N fusion, yeast selection) (log enrichment); library NNK1; higher = more nucleation; inactive = no reads after selection
Outline: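 On medium lacking adenine and uracil, psi-negative yeast expressing peptides of 20 random codons fused to Sup35N were grown 7 days at 30°C after a 24-hour induction with 100 μM copper sulfate. Illumina sequencing of input and output plasmid inserts gave the reads, and sequences under 100 input reads were excluded. The nucleation score is the DiMSum log enrichment of output over input reads, centred on the mode score of non-aggregating sequences.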

Substance | amyloid nucleation score
ATLEGVCNINHPSCCASLLD | 0.002 ± 0.61
LGDVSRYFCCIQGNNYRM | 5.51 ± 0.057
FCVSQVFRDLS | -0.315 ± 0.37
CYIYPVFLGFMYCREEGNMG | 1.93 ± 0.37
TVNVY | 0.829 ± 0.62
IVFLVLRTANRMWNDYHAS | -0.075 ± 0.33
YRGVQCFKATKNARVLLWVV | -0.051 ± 0.52
AYCGSWLQYL | -0.231 ± 0.76
YTTVLAYLLTLDVGSSALSG | -0.465 ± 1.2
VDNNARDTSVGSALENMWVL | 1.16 ± 0.62
RSIMWNLFHDF | 0.789 ± 0.51
NYNVTNNALADR | -0.368 ± 1.7
LAILMMCLLWTDLAKVLCPH | -0.015 ± 0.69
IGTSFVYNYFDHFLK | 5.59 ± 0.062
FMDKVFSIP | -0.101 ± 0.78
SFESYEH | 1.29 ± 0.9
VKGSGGGWFERNSGAPRKVF | 1.03 ± 0.38
SCAAILEDVVHSAHILYLSH | -0.92 ± 0.96
FSRISCFP | 0.638 ± 0.61
NFHDEV | -1.22 ± 1.5
NYEQYLGCSNTEERSSSCTL | -0.286 ± 1.2
PYYFEGGEAQTPRHSDGQWM | -0.769 ± 0.56
SMAGEFWSVLFFCESIWGGD | 4.83 ± 0.12
YVLSFYHQVGPALGFIRQWI | -1.04 ± 0.69
FASVDTRETSSGMGGISKTG | -0.742 ± 0.56

Substance | amyloid nucleation score
PASSCAVVELGMKVGEGGIP | -0.386 ± 0.95
LWYCYYSVVFILSGALSHCV | -0.252 ± 1.4
MHISWPYYRHDIVRRKSCSA | 0.011 ± 0.29
LVILRGLGPDSCYYC | -0.248 ± 0.86
SLSWEAYRSLLS | 1.1 ± 0.23
VGVHRHSSWWEFAYCASRQ | -0.537 ± 0.71
CSSIWHCPVYDVITLM | 0.282 ± 0.75
RSSCVELGWIGWRARTNR | 0.407 ± 0.57
VSYFVHIC | 0.145 ± 0.56
GIISASSVNTQRWTSGTNTC | inactive
AYSERTSGTMTRVWWDLRSR | -0.795 ± 1.1
LRVYGGFLSMSCMRQRDGTV | 0.151 ± 0.39
TYSGYFVLAIISPRLDRLFT | -1.1 ± 0.58
VGRHALGTSRGKRL | -0.307 ± 0.67
YVVGARNEVRGYRVGTRLIR | 0.155 ± 1.5
YPTYCLGCMS | 0.672 ± 0.51
DIAHC | -0.464 ± 0.59
WDKFC | -1.16 ± 0.88
RTMEYAPGCLVAFDYK | 0.24 ± 0.44
LFFHSKYMQRLKL | 0.183 ± 0.72
CSVMSNARRIWDRMQLNGVK | -0.568 ± 0.33
SCNYWCERVQGNSLWVGWVH | -0.126 ± 0.35
ISNDYGATMFNLGCYI | 1.17 ± 0.18
YFSSYFV | 0.118 ± 0.41
KFWTGPIRYVN | -0.149 ± 0.31

Substance | amyloid nucleation score
LDLGEV | 0.025 ± 0.36
IDSYITNKGSRSAKCHPDDS | -0.701 ± 1
DVKCAVTLVL | -0.055 ± 0.6
VFVVDIFLFVMNCPYDPLSR | 2.6 ± 0.066
DNAYPHPCSIYYNNNQFLRF | 6.734 ± 0.054
SYKLAVIRKM | -0.28 ± 0.24
SYQSDDLWQETKPALSPLLE | 0.119 ± 0.46
ISAKH | -0.89 ± 0.65
TVRNYHFVLV | 1.46 ± 0.33
RLMVRGLDGKTFHSFFDSIL | inactive
LTGSRIMCFSMWR | -1.02 ± 0.43
RSEGKNMADS | -0.46 ± 1.1
YDHGRWDSTVSGLRDVMLDV | inactive
RETYLALRRYSDLTFINRTL | 1.21 ± 0.29
FNWDGQFAVCMWKS | -0.221 ± 0.38
FSLNQCVKGHVFGATICTLR | 1.86 ± 0.43
GVGVLLSYSELFDSTIEGPT | 0.664 ± 0.59
LMYPSGQSKRWIYRLYMGYR | inactive
PGSIYMSPGCGYIQAVRDHI | -0.205 ± 0.35
RCGCERTYSFR | -0.027 ± 0.72
ECSRGVVIIWDMHVGGIDEC | 1.79 ± 0.41
LDGTAYVDFVVCLEGGTDVI | -0.18 ± 0.37
HVGSATASRVMSGCGSTVSY | -1.83 ± 1.7
MSSSKGVVYDCFCSMWWLLP | 0.018 ± 0.73
SCARFITTNNQDSRLVASSN | -0.718 ± 0.77

Substance | amyloid nucleation score
RGIAVWCTN | 0.286 ± 0.97
YMLSLSPPRRC | 0.25 ± 0.33
DSAIWDKNFSLDMGSGFMHC | -0.125 ± 1.7
QLSTISFLQWSGSACSSTVH | -0.49 ± 0.74
SHPNRTCKWLHSSVLRTPVL | 0.313 ± 0.49
IFRTIERTVSIFNRSSR | 0.222 ± 0.72
NLMYAGIRLKGEICTNQVSF | 0.371 ± 0.16
NLMEKRSLRAIRWIVRSWAG | 0.839 ± 0.62
WINKYYDLN | 0.472 ± 0.42
GESCLDSRFRNDDNR | 0.09 ± 0.33
ECCYWPREK | 0.422 ± 0.32
KMLVSDTNGESSPLL | 0.124 ± 0.39
PRCNSFNSYCFA | 0.224 ± 0.29
SMSHVWL | -1.25 ± 1.5
HSIWSRERVVVGVIYVCNFN | 7.227 ± 0.048
CSKFLVVVSVYFLVYSVEHM | -0.94 ± 1.6
KAEMFNYLTNHTP | -0.033 ± 1.1
QGIVAVLED | inactive
KYWLMSLLAVKPSSRDSYGQ | -0.239 ± 0.28
HGRLTYSDVVNVRTFPGLMK | -0.232 ± 0.25
TPFVMIKDGKADFVILNVYH | 7.077 ± 0.055
LLMEFI | 1.46 ± 0.84
IWMYP | 1.7 ± 0.65
SNLLTCPKYFVVTFFCL | 0.211 ± 0.26
GLVLTIWHLRTAEERIVYRA | 1.58 ± 0.26

Substance | amyloid nucleation score
ASRIHYWWS | 0.787 ± 0.25
FSSNLLECRCLWKTQASNST | 0.271 ± 0.33
TGWLWYQHRWSDTWLPGTMR | 2.04 ± 0.15
STVTTAYNDMSLIWQAARVL | 0.436 ± 0.57
SHIGIFEGFYVYLPYDCITM | inactive
FLWIA | -0.012 ± 0.56
SCLNNKSPSLI | -0.342 ± 0.25
CAIWFRTEWFWTVCTWVSGH | -0.201 ± 0.43
QMIMAMNSFLISYLNHMWPG | 2.13 ± 0.1
MTPEAL | -0.063 ± 0.43
HSNCVLVVDMLAQWLMRAGD | 0.384 ± 0.79
EFVLGGASRVELY | -0.624 ± 0.64
TFVVFFCWLGS | 5.12 ± 0.093
MYISYLYFCYKRSMYFG | 0.718 ± 1.1
KRRVSLCMPWVGSDRRVFMG | 0.377 ± 0.31
DIYRRSVGGRWLRLFSRRVV | 0.209 ± 0.39
IRVSFIVQSCILSALEDALN | 2.68 ± 0.13
FNRKISFFCN | -0.393 ± 0.4
GKHSLSPVYLWYGNNY | 0.707 ± 0.52
CAKGGPSGYKN | -1.41 ± 0.98
SRPYLLRLR | 0.455 ± 0.57
KDLEPVSARMFLLLLICLA | 0.057 ± 0.52
EYGLVRTLPVFRRVRRKYVG | -0.666 ± 0.67
FNVKSSMRNPGCIPWHRATY | -0.616 ± 1.7
LKMEYHVGRNWSLGKSRAPE | 0.335 ± 0.92

Substance | amyloid nucleation score
QDLTEWTYSLAPFMVFHTRP | -0.519 ± 1.2
DFRLGHDFWANKSFFFTSPN | -0.028 ± 0.31
SNATVGQPRYNVRTGKAGCE | 0.351 ± 0.48
YVPMRETGCRDSTYIEWFWY | -0.057 ± 0.24
WNNVGNTCMEPRSSLGCTLR | 0.147 ± 0.51
TNYDFMVCCFKPSMAYGKCM | -0.354 ± 0.63
FDLVYACANPTFGINVRTGR | 2.67 ± 0.12
NSVISMAPYLFTCIENVKSK | 0.315 ± 0.42
CRGFFLGFPIHQVKAFCFCR | -0.047 ± 1.7
CFRTFKFLI | 2.49 ± 0.27
VSRNIWYRWGNLLAVVKM | -0.025 ± 0.57
GLLIGDT | 0.437 ± 0.48
MDRNFSILTF | inactive
PQPYTRNIERLAYVFTLDMP | -0.21 ± 0.27
DDFTLCKPGLVYMMSG | 0.398 ± 0.6
IRSSFMLRCIVSYVPCNTGL | -0.027 ± 1.1
CRRIWA | -0.377 ± 0.34
WCTATGVSRFTMGIKTCHCL | 0.738 ± 0.38
SVAFWSVCRVLGTDADMDRI | -0.254 ± 0.58
LFIRYALSFESMWL | 0.586 ± 0.52
AIVSGRTFDKPNMKRCL | -1.44 ± 0.69
LIVVSLGKMKLGYYFKFNVL | 0.286 ± 0.22
SLVMKVPLFECVCIGMCGRA | 0.448 ± 0.52
TVYYFG | 1.18 ± 0.19
YKGMSAHFGLILFDCCLNGS | 7.516 ± 0.067

Substance | amyloid nucleation score
RILRCNPLLCRNSACTGIGA | 0.742 ± 0.75
IINMGTYRSTMLNILLKEKC | 2.88 ± 0.27
VARTW | 0.602 ± 0.57
KILVVGHRESIMCTDSYIMW | -0.294 ± 0.59
ALSSAALEYNIPVGSGAFVN | 0.25 ± 1.4
MLRTAMKCWSTSMGDCLEAF | 0.619 ± 0.48
TLGPAWNVKFAWVFSFLVCI | 0.933 ± 0.7
RSFTCVMDRSDVEVGQCLGS | -0.6 ± 0.77
FRLGPLEQ | -1.61 ± 1.7
DLNRSALSRDDGNSVILKCG | 0.653 ± 0.68
SALYNAGCKLCLFTS | 0.004 ± 1.1
NKNCLELCLTHGMLNQL | 0.25 ± 0.36
CWLTRCCITWVIHRVMANLM | 0.51 ± 0.84
SRFNSWLCCEND | 1.76 ± 0.35
WTFGLGSGVSGVSLERGPLG | -0.622 ± 1.7
GRSFYNCPPLRIHCLCIMEV | 0.557 ± 0.68
WWSYRKCRALNRRFQFFSYR | inactive
SWLVPR | -0.104 ± 0.25
YGDDRWYIRSIIEDCQLGGF | -0.716 ± 0.5
GFLNYHWAGSYFERGM | 3.04 ± 0.13
FIWSLVGAQAQSTNRVHHLS | 1.3 ± 0.67
KRRGSFKVLYSHSVGLYQSF | 2.79 ± 0.14
NGNEYMVHRHADKWNTGQYR | 5.83 ± 0.084
LILSSCHERGSGGVFWTDHV | 0.924 ± 0.64
